Assay results published in patent publication US20200347130A1 (JIANGSU HENGRUI MEDICINE, published 2020).

T1: CD96 extracellular region with His tag (CD96-His) (human, UniProt P40200 22-519)
T1 construct: also called CD96-ECD-His; Bio-CD96-His (biotin-labelled form)
T1 sequence: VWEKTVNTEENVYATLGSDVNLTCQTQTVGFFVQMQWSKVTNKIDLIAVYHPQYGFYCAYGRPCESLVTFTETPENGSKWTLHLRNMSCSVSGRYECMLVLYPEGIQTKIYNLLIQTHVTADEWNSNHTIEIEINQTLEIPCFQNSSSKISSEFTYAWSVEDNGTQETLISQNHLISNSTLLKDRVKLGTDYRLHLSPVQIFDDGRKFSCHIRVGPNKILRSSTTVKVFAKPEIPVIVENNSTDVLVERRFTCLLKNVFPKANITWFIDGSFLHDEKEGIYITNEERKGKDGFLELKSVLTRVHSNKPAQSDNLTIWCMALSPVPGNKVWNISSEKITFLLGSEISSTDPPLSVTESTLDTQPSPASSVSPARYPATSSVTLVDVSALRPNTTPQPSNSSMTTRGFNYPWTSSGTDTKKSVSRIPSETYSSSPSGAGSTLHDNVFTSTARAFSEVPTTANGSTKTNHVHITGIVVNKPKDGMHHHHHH

T2: Full-length human CD96 on CHO-S cells (human, UniProt P40200 22-585)
T2 construct: also called CD96-CHOs; hCD96-CHOs
T2 sequence: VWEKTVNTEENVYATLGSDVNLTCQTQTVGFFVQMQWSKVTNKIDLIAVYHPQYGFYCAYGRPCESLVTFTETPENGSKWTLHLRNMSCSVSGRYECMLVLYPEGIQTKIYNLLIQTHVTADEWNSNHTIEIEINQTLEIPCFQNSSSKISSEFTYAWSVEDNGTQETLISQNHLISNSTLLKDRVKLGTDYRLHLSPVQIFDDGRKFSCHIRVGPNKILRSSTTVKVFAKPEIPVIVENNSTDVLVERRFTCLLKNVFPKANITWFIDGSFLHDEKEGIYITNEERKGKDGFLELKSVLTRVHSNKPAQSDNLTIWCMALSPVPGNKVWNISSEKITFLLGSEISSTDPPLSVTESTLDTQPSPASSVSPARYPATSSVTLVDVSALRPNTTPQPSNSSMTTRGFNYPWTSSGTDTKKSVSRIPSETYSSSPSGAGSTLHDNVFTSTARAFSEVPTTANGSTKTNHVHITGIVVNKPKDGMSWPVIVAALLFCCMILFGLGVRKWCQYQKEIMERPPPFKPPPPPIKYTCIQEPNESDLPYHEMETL


Key:
[1] = target: T1, CD96 extracellular region with His tag …; assay: ELISA, CD96-His coated
In short: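 Hybridoma-purified or humanized antibodies were titrated onto wells coated with 2 μg/ml His-tagged human CD96 and incubated 1 h at 37 °C after milk blocking. Binding was detected by TMB absorbance at 450 nm, and EC50 values were calculated.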

[2] = target: T2, Full-length human CD96 on CHO-S cells; assay: cell ELISA, fixed CD96-overexpressing CHO-S cells
In short: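 EC50 was derived from 450 nm absorbance after TMB development (10-25 min, stopped with 1M H₂SO₄). Before that, antibody concentration series bound for 2 h at 37 °C to fixed, milk-blocked CHO-S cells overexpressing full-length human CD96, seeded at 9×10⁴/well.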

[3] = target: T1, CD96 extracellular region with His tag …; assay: SPR (Biacore), antibody captured, CD96-ECD-His as mobile phase
Source text: Protein A biosensor chip was used to capture antibodies to be tested, then CD96 antigen was flowed on the surface of the chip, and real time reaction signal was detected by Biacore to obtain the binding and dissociation curve. After the dissociation of each experimental cycle was completed, the biosensor chip was washed and regenerated with a glycine-hydrochloric acid regeneration solution (pH 1.5).

EC50 [1] | EC50 [2] | Kd [3] | Binder
0.083 nM | 0.016 nM | 13.1 nM | h1719-006 (antibody, V domains shown, also called M719-006) VH: EVTLKESGPVLVKPTETLTLTCTVSGFSLSSYGVSWVRQPPGKGLEWLGVIWGDGNTNYHSVLISRLTISKDTSKSQVVLTLTNMDPVDTATYYCAKNNYYGSRYGYPMDYWGQGTTVTVSS VL: DIQMTQSPSSVSASVGDRVTITCKATQDVGTAVAWYQQKPGKSPKLLIYWASTRHTGVPERFSGSGSGTDFTLTISSLQPEDFATYFCQQYGSSVLTFGGGTKVEIK
0.091 nM | 0.02 nM | 14.9 nM | h1719-014 (antibody, V domains shown, Only variable regions are tied to this name; also called M719-014) VH: EVTLKESGPVLVKPTETLTLTCTVSGFSLSSYGVSWVRQPPGKGLEWLGVIWGDGNTNYHSVLISRLTISKDTSKSQVVLTLTNMDPVDTATYYCAKNYYYGSRYGYPLDYWGQGTTVTVSS VL: DIQMTQSPSSVSASVGDRVTITCKATQDVGTAVAWYQQKPGKSPKLLIYWASTRHTGVPERFSGSGSGTDFTLTISSLQPEDFATYFCQQYGSSVLTFGGGTKVEIK
